Values quoted from earlier work in patent US20050026224A1, “Methods and compositions for modulating G-protein coupled receptor 54” (priority 2003, published 2005).

Assays:
cell motility [1] = conditions: Hori et al. 2001
[2] = tested on: GPR54 transfected CHO cells; conditions: GPR54 transfected CHO cells in vitro; Ohtaki et al. 2001
cell motility [3] = conditions: Hori et al. 2001; remark: listed apart in the source
[4] = tested on: GPR54 transfected CHO cells; conditions: GPR54 transfected CHO cells in vitro; Ohtaki et al. 2001; remark: listed apart in the source
[5] = tested on: GPR54-transfected B16-BL6 melanomas; conditions: GPR54-transfected B16-BL6 melanomas in vivo; Ohtaki et al. 2001

B1: Metastin: peptide ligand agonist for GPR54; protein product of the Kiss-1 gene (SEQ ID NO: 4) (protein, listed as Homo sapiens)
chain: MNSLVSWQLLLFLCATHFGEPLEKVASVGNSRPTGQQLESLGLLAPGEQSLPCTERKPAATARLSRRGTSLSPPPESSGSRQQPGLSAPHSRQIPAPQGAVLVQREKDLPNYNWNSFGLRFGKREAAPGNHGRSAGRGWGAGAGQ
cell motility in a wound healing assay (cell motility [1]): suppress cell motility
invasion [2]: inhibits
cell motility in a chemotaxis assay (cell motility [3]): suppress cell motility
chemotaxis [4]: inhibits chemotaxis
pulmonary metastasis [5]: attenuates pulmonary metastasis
